Target: T1, fragment C of tetanus toxoid (Sigma, T3694) (Clostridium tetani, UniProt P04958 865-1315)
T1 sequence: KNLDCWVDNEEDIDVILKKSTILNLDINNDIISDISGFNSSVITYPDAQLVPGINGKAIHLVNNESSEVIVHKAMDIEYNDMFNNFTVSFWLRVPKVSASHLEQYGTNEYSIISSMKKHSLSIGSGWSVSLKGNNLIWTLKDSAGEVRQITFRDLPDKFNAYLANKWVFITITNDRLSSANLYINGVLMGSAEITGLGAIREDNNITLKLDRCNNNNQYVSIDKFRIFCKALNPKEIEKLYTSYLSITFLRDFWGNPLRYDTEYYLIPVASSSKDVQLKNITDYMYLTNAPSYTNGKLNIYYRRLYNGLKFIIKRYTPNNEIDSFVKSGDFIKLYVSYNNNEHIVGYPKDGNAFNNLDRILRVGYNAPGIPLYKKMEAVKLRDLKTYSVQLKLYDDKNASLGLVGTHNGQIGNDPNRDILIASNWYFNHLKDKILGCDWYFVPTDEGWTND

B1: Antibody 4 (human monoclonal antibody against tetanus toxin) (antibody, V domains shown)
VH: EVQLVESGGGLVQPGGSLRLSCAASGFSFSRHWMSWVRQAPGKGLEWVANIHYDLSEKYFVDSVRGRFTISRDNAKNSLYLEMNSLRADDTAVYYCARGGRSTVWPRGWFDLWGQGTLVTVSS
VL: EIVLTQSPGTLSLSPGERATLSCRASQSVSSSYLAWYQQKPGQAPRLLIYGASGRATGIPDRFSGSGSGTHFTLTISRLEPEDFAVYFCQQFADSRTFGQGTKLEIKR
  Kd: 34 nM

B2: Antibody 5 (human monoclonal antibody against tetanus toxin) (antibody, V domains shown)
VH: QLVQSGAEVKKPGSSVKVSCKASGGTLSGFAINWVRQAPGQGLEWMGGIIPDTGSPTYVQRFQGRVTMTADKSTSTAYMELNSLRSDDTAVYYCARSVMITFGGVLTPPNFDFWGQGTLVTVSS
VL: DIQMTQSPSSLSASVGDRVTISCRASQAISIYLNWYQQRPGKAPRLLIYAASNLQSGVPSRFSASGSGTDFTLTISSLQPEDFATYYCQQSKENPPTFGQGTKLEIKR
  Kd: 0.16 nM

— patent WO2012007688A1 (dated 2012)
